The results in this text go back to patent publication US20050043236A1 (published 2005).

Like-named read-outs stand apart in the source and are kept apart here.

Experiment [1] has as its target T1, human VEGF165 (human, UniProt P15692-4 27-191).
T1 construct: also called hVEGF165
Briefly: kinetic dissociation from hVEGF165, as described in WO/0075319.

Experiment [2] addresses T1, human VEGF165. Briefly: half-life of dissociation of the trap-hVEGF165 complex, as described in WO/0075319.
In experiment [3] the target is T1, human VEGF165.
Experiment [4] has as its target T1, human VEGF165. As to the kind of experiment: affinity determination for human VEGF-165 (method not named in Example 7).
In experiment [5] the target is T1, human VEGF165. Briefly: affinity determination for human VEGF-165 (method not named in Example 7); second row for SEQ ID NO: 26.

T1 sequence (P15692 other isoform, or with tags, fused parts or gaps limits assumed): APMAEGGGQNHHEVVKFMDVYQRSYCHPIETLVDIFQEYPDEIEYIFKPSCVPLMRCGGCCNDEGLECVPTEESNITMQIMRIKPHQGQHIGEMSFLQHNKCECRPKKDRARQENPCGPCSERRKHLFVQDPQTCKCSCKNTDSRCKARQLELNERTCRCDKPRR

B1: cleaved VEGF mini-trap (receptor)
chain: SDTGRPFVEMYSEIPEIIHMTEGRELVIPCRVTSPNITVTLKKFPLDTLIPDGKRIIWDSRKGFIISNATYKEIGLLTCEATVNGHLYKTNYLTHRQTNTIIDVVLSPSHGIELSVGEKLVLNCTARTELNVGIDFNWEYPSSKHQHKKLVNRDLKTQSGSEMKKFLSTLTIDGVTRSDQGLYTCAASSGLMTKKNSTFVRVHEKDKTHTCPPCLVPRGS
notes: Product of thrombin digestion of the uncleaved VEGF trap; also called thrombin-cleaved dimeric VEGF mini-trap; truncated trap
For orientation: koff means a measure of how fast the partners let go of each other. Turning to B1, the koff with human VEGF165 [1] turned out to be 5.46e-05 s⁻¹. Besides, the “T1/2” value in the experiment with human VEGF165 [2] worked out at 3.53 h.

B2: uncleaved VEGF trap containing a thrombin cleavage site (Fc fusion)
chain: SDTGRPFVEMYSEIPEIIHMTEGRELVIPCRVTSPNITVTLKKFPLDTLIPDGKRIIWDSRKGFIISNATYKEIGLLTCEATVNGHLYKTNYLTHRQTNTIIDVVLSPSHGIELSVGEKLVLNCTARTELNVGIDFNWEYPSSKHQHKKLVNRDLKTQSGSEMKKFLSTLTIDGVTRSDQGLYTCAASSGLMTKKNSTFVRVHEKDKTHTCPPCLVPRGSPAPELLGGPSVFLFPPKPKDTLMISRTPEVTCVVVDVSHEDPEVKFNWYVDGVEVHNAKTKPREEQYNSTYRVVSVLTVLHQDWLNGKEYKCKVSNKALPAPIEKTISKAKGQPREPQVYTLPPSRDELTKNQVSLTCLVKGFYPSDIAVEWESNGQPENNYKTTPPVLDSDGSFFLYSKLTVDKSRWQQGNVFSCSVMHEALHNHYTQKSLSLSPGK
B2 had a dissociation rate constant (koff) with human VEGF165 [1] of 4.93e-05 s⁻¹. For the same molecule, the “T1/2” value with human VEGF165 [2] was 3.9 h.

B3: recombinant monomeric R1R2-myc myc his (receptor)
chain: SDTGRPFVEMYSEIPEIIHMTEGRELVIPCRVTSPNITVTLKKFPLDTLIPDGKRIIWDSRKGFIISNATYKEIGLLTCEATVNGHLYKTNYLTHRQTNTIIDVVLSPSHGIELSVGEKLVLNCTARTELNVGIDFNWEYPSSKHQHKKLVNRDLKTQSGSEMKKFLSTLTIDGVTRSDQGLYTCAASSGLMTKKNSTFVRVHEK
modifications: C-terminal myc-myc-his tag is not in the letters.
notes: Monomer; The construct is named only, not described; also called R1R2-myc myc his monomer; not shown: myc-myc-his tag and any linker to it
By Kd is commonly meant the equilibrium constant for the complex coming apart. Read a low Kd as tighter binding. Turning to B3, the dissociation constant Kd in the experiment with human VEGF165 [3] is about 1000 pM. Also, the koff in the experiment with human VEGF165 [1] is 0.00674 s⁻¹. Also, the “T1/2” value with human VEGF165 [2] came out at 0.028 h.

B4: VEGF mini-trap of SEQ ID NO:26 (receptor)
chain: SDTGRPFVEMYSEIPEIIHMTEGRELVIPCRVTSPNITVTLKKFPLDTLIPDGKRIIWDSRKGFIISNATYKEIGLLTCEATVNGHLYKTNYLTHRQTNTIIDVVLSPSHGIELSVGEKLVLNCTARTELNVGIDFNWEYPSSKHQHKKLVNRDLKTQSGSEMKKFLSTLTIDGVTRSDQGLYTCAASSGLMTKKNSTFVRVHEKDKTHTCPPC
notes: Secreted from CHO K1 cells; Covalent dimer of about 64 kDa
Broadly, the kon is the second-order rate constant of association. Read a low kon as slow association. For B4, in the experiment with human VEGF165 [4], binding was put at a Kd of 0.328 pM, the koff worked out at 6.56e-06 s⁻¹ and the on-rate (kon) stood at 2e+07 M⁻¹ s⁻¹. In the experiment with human VEGF165 [5], this molecule registered a Kd of 0.221 pM, an off-rate constant (koff) of 5.77e-06 s⁻¹ and an association rate constant (kon) of 2.61e+07 M⁻¹ s⁻¹.
